PMC2034485 (Nucleic Acids Research, 2007)

Experiments:
ubiquitin = ubiquitin (UniProt P0CG48 1-76); test: SPR
human Rad6 (hHR6B) = human Rad6 (hHR6B) (human, UniProt P63146 1-152); test: SEC
Sequence of human Rad6 (hHR6B) (P63146 whole entry): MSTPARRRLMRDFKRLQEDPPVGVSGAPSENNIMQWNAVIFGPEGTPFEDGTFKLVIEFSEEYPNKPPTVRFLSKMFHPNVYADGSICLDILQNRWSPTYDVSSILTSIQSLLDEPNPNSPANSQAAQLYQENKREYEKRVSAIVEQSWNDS

TLKQVTKVDCPVCGVNIPESHINKHLDSCLSREEKKES (domain or fragment) [GST-ZnF (Rad18 zinc finger domain)] was tested, and the Kd (ubiquitin) was 42.1 µM.

In the case of TLKQVTKVDCPVFGVNIPESHINKHLDSCLSREEKKES (domain or fragment) [GST-C207F ZnF], the Kd (ubiquitin) is reported as 192 µM.

B1: GST-fused Rad18 (1–99), Ring domain (domain or fragment)
chain: MDSLAESRWPPGLAVMKTIDDLLRCGICFEYFNIAMIIPQCSHNYCSLCIRKFLSYKTQCPTCCVTVTEPDLKNNRILDELVKSLNFARNHLLQFALES
B1: binds (human Rad6 (hHR6B)).
